Consider one molecule from patent US11780895B2, “Targeted DNA demethylation and methylation” (The Jackson Laboratory, priority 2016, dated 2023).

For this experiment, the system named is SOX2. Description: SOX2 gene expression by quantitative reverse-transcription PCR after targeting Dnmt effectors to the SOX2 promoter. The class given is cell-based. As to conditions: with dCas9 and sgRNA-PBS targeting SOX2 promoter; compared with dCas9 direct fusions. The protocol: Establishment of a dCas9-expressing cell line. The day prior to transfection, Lenti-X 293T cells were seeded into 6-well plates at 1.2 million cells per well. The cells were transfected with the supercoiled packaging plasmids (pLP1 (gag/pol), pLP2 (rev), and VSV-G (envelope)) and a dCas9 lentiviral expression plasmid through Lipofectamine 3000 reagent (Invitrogen). At 6 h posttransfection, medium was exchanged for fresh. At 24 h posttransfection, 2 ml of medium containing the lentivirus were collected and centrifuged for 10 minutes at 2,000 rpm to remove cellular debris. The supernatant was filtered utilizing a […] pore filter (Millipore), and the lentivirus was frozen at −80° C. until needed. HEK293T cells, seeded into a 12-well plate at 150,000 cells per well, were transduced with 500 μl of the dCas9 lentivirus in culture medium supplemented with 5 μg/ml polybrene for 12 hours, and subsequently selected with Blasticidin antibiotics on the third day post transduction.
Transfection. HEK293T, and HEK293T/dCas9 cell lines were seeded into 12-well plates at 150,000 cells per well. […] At 3 day post-transfection, the cells were sorted for GFP (sgRNA expression constructs are marked by GFP) with fluorescence-activated cell sorting (FACS) and re-plated into 12 or 24-well plates.
Quantitative reverse-transcription PCR. […]

B1: Dnmt3a-PUF: Dnmt3a catalytic domain fused to the N-terminus of PUFa (protein)
chain: MGPANHDQEFDPPKVYPPVPAEKRKPIRVLSLFDGIATGLLVLKDLGIQVDRYIASEVCEDSITVGMVRHQGKIMYVGDVRSVTQKHIQEWGPFDLVIGGSPCNDLSIVNPARKGLYEGTGRLFFEFYRLLHDARPKEGDDRPFFWLFENVVAMGVSDKRDISRFLESNPVMIDAKEVSAAHRARYFWGNLPGMNRPLASTVNDKLELQECLEHGRIAKFSKVRTITTRSNSIKQGKDQHFPVFMNEKEDILWCTEMERVFGFPVHYTDVSNMSRLARQRLLGRSWSVPVIRHLFAPLKEYFACVIDGGGGSDPKKKRKVDPKKKRKVDPKKKRKVGSTGSRNDGGGGSGGGGSGGGGSGRAGILPPKKKRKVSRGRSRLLEDFRNNRYPNLQLREIAGHIMEFSQDQHGSRFIQLKLERATPAERQLVFNEILQAAYQLMVDVFGNYVIQKFFEFGSLEQKLALAERIRGHVLSLALQMYGSRVIEKALEFIPSDQQNEMVRELDGHVLKCVKDQNGNHVVQKCIECVQPQSLQFIIDAFKGQVFALSTHPYGCRVIQRILEHCLPDQTLPILEELHQHTEQLVQDQYGNYVIQHVLEHGRPEDKSKIVAEIRGNVLVLSQHKFASNVVEKCVTHASRTERAVLIDEVCTMNDGPHSALYTMMKDQYANYVVQKMIDVAEPGQRKIVMHKIRPHIATLRKYTYGKHILAKLEKYYMKNGVDLGDPKKKRKVDPKKKRKVGGRGGGGSGGGGSGGGGSGPA
B1: the “repression of SOX2 gene expression” value is listed as “more robust repression of SOX2 gene expression compared to direct fusions”.
